Laboratory results: article PMC5877544, “D181A Site-Mutagenesis Enhances Both the Hydrolyzing and Transfructosylating Activities of BmSUC1, a Novel β-Fructofuranosidase in the Silkworm Bombyx mori” (International Journal of Molecular Sciences, 2018)

How the values were obtained:
purified protein [1] = substrate: OC[C@H]1O[C@H](OC[C@H]2O[C@H](O[C@]3(CO)O[C@H](CO)[C@@H](O)[C@@H]3O)[C@H](O)[C@@H](O)[C@@H]2O)[C@H](O)[C@@H](O)[C@H]1O; experiment: purified protein; format: biochemical, Bombyx mori; conditions: 10 mM Britton-Robinson buffer pH 7.0, 30 °C (standard assay), 2 μg protein, raffinose 10-70 mM
purified protein [2] = substrate: OC[C@H]1O[C@@](CO)(O[C@H]2O[C@H](CO)[C@@H](O)[C@H](O)[C@H]2O)[C@@H](O)[C@@H]1O; experiment: purified protein; format: biochemical, Bombyx mori; conditions: 10 mM Britton-Robinson buffer pH 7.0, 30 °C (standard assay), 2 μg protein, sucrose 40-280 mM

Protein	Km (purified protein [1])	kcat (purified protein [1])	kcat/Km (purified protein [1])	Km (purified protein [2])	kcat (purified protein [2])	kcat/Km (purified protein [2])
BmSUC1 (wtBmSUC1) (Bombyx mori) (protein, full coding region (488 aa, about 56 kDa), C-terminal 6xHis tag kept; expressed in BmN cells by Bac-to-Bac/BmNPV, secreted (N-terminal signal peptide), Ni-NTA purified from culture medium) LRQQNETTKRELEEYIADKKAEINPRYRPHYHISPPVGWMNDPNGFSYYKEKFHLFYQFYPYDSVWGPMHWGHVSSSNLIDWEHLPTALIPETEMCFSGGAVVHGDDLVLLYTGRVTTDTDPFYNETQYLAFSNDGVNFRKYEGNPVLSYVPDNSADFRDPKIWKFKDHWYVVIGSSSNKRGRVLLYRSGDLFNWEFLSVLGESDGDMGYMWECPDLFELGGKTIFLWSPQGLEPKGDRYKNTYQTGYYIGELDYETFEFKTDKYFQELDYGHDFYATQTIQGDGKTYLIGWFNMWEVPHLEKEDGWAGTTTLVRELQLIGTRITMNPLEGIQDLRTDSVHNGDLEPQQAIEFGPTAEIILQGCLDQKIELLIQGKEGGLVTTVTWDPEVGKVIVNRSGEVRQVEWVPIGKTSWRLFLDASSLELFCGEGEVVFSSRIFSDGDWVVKNSSPQTLSVEAYRLRRSVPA	52.32 ± 17.22 mM	0.025 ± 0.0028 s⁻¹	0.291 M⁻¹ s⁻¹	88.32 ± 11.75 mM	0.022 ± 0.0009 s⁻¹	0.249 M⁻¹ s⁻¹
BmSUC1 (wtBmSUC1) (Bombyx mori; D181A) (protein, full coding region (488 aa, about 56 kDa), C-terminal 6xHis tag kept; expressed in BmN cells by Bac-to-Bac/BmNPV, secreted (N-terminal signal peptide), Ni-NTA purified from culture medium) LRQQNETTKRELEEYIADKKAEINPRYRPHYHISPPVGWMNDPNGFSYYKEKFHLFYQFYPYDSVWGPMHWGHVSSSNLIDWEHLPTALIPETEMCFSGGAVVHGDDLVLLYTGRVTTDTDPFYNETQYLAFSNDGVNFRKYEGNPVLSYVPDNSADFRAPKIWKFKDHWYVVIGSSSNKRGRVLLYRSGDLFNWEFLSVLGESDGDMGYMWECPDLFELGGKTIFLWSPQGLEPKGDRYKNTYQTGYYIGELDYETFEFKTDKYFQELDYGHDFYATQTIQGDGKTYLIGWFNMWEVPHLEKEDGWAGTTTLVRELQLIGTRITMNPLEGIQDLRTDSVHNGDLEPQQAIEFGPTAEIILQGCLDQKIELLIQGKEGGLVTTVTWDPEVGKVIVNRSGEVRQVEWVPIGKTSWRLFLDASSLELFCGEGEVVFSSRIFSDGDWVVKNSSPQTLSVEAYRLRRSVPA	32.03 ± 4.43 mM	0.021 ± 0.0014 s⁻¹	0.656 M⁻¹ s⁻¹	52.87 ± 6.85 mM	0.025 ± 0.0004 s⁻¹	0.473 M⁻¹ s⁻¹
